According to patent US20180195056:

Protein | cleavage efficiency at limiting substrate concentration (constant protease:substrate ratio 1:1000, 1 h, 0° C.) (His14-xlLC3B-MBP) | protease concentration sufficient to cleave 100 µM substrate within 1 h at 0° C. (His14-xlLC3B-MBP) | salt sensitivity of substrate cleavage (500 nM protease, 1 h, 0° C.) (His14-xlLC3B-MBP) | substrate excess cleaved to near completion within 1 h at 37° C. (His14-xlLC3B-MBP) | salt sensitivity of substrate cleavage (500 nM protease, 1 h, 0° C.) (His14-xlGATE16-MBP) | substrate excess cleaved to near completion within 1 h at 25° C. (His14-xlGATE16-MBP) | temperature dependence of substrate cleavage (His14-xlLC3B-MBP) | time for efficient cleavage (>95%) at 500 nM protease, 0° C., against full-length or N-terminally truncated enzymes (His14-xlLC3B-MBP) | cleavage efficiency at limiting substrate concentration (constant protease:substrate ratio 1:2000, 1 h, 0° C.) (His14-xlGATE16-MBP) | percent of a 6600-fold substrate excess cleaved in 1 h at 37° C. (His14-xlGATE16-MBP) | protease concentration needed to cleave 100 µM substrate within 2 h at 0° C. (His14-xlGATE16-MBP) | protease required for substrate processing at 0° C., against the other protease fragments (His14-xlGATE16-MBP) | protease required for substrate processing at 25° C., against the other protease fragments (His14-xlGATE16-MBP) | substrate cleavage (20 µM protease, 100 µM substrate, 3 h, 25° C.) (His14-xlLC3B-MBP) | temperature needed for near-complete cleavage of a 6600-fold substrate excess in 1 h (His14-xlGATE16-MBP)
xlAtg4B^25-384 (protein) PVWVLGRKYSALTEKEQLLNDITSRLWFTYRRNFQAIGGTGPTSDTGWGCMLRCGQMIFAQALICRHVGRDWRWDKQKPKGEYLNILTAFLDKKDSYYSIHQIAQMGVGEGKYIGQWYGPNTVAQVLRKLAVFDQWSSIAVHIAMDNTVVVDEIRRLCRAGSGESSDAGALSNGYTGDSDPSCAQWKPLVLLIPLRLGLSEINEAYIETLKHCFMVPQSLGVIGGRPNSAHYFIGYVGDELIYLDPHTTQLSVEPSDCSFIEDESFHCQHPPCRMHVSEIDPSIAVGFFCSSQEDFEDWCQHIKKLSLSGGALPMFEVVDQLPLHLSNPDVLNLTPDSSDADRLDRFFDSEDEEFEILSL | full-length xlAtg4B and both N-terminally shortened fragments could cleave the xlLC3B substrate rather efficiently even at substrate concentrations as low as 3-10 µM | 1 µM of each protease fragment was sufficient to cleave 100 µM of substrate within 1 h | xlLC3B processing by full-length xlAtg4B or its N-terminally truncated fragments was remarkably insensitive towards NaCl concentrations up to 1.5 M | Within 1 h at 37° C., all three enzymes were able to cleave a >3000-fold excess of the xlLC3B substrate to near completion | also full-length or N-terminally truncated xlAtg4B fragments showed a reduced cleavage activity at ≥1 M NaCl | near-complete cleavage of a 6600-fold substrate excess was reached for the two N-terminally shortened protease fragments already at 25 °C |  |  |  |  |  |  |  |  | 
xlAtg4B^25-345 (protein) PVWVLGRKYSALTEKEQLLNDITSRLWFTYRRNFQAIGGTGPTSDTGWGCMLRCGQMIFAQALICRHVGRDWRWDKQKPKGEYLNILTAFLDKKDSYYSIHQIAQMGVGEGKYIGQWYGPNTVAQVLRKLAVFDQWSSIAVHIAMDNTVVVDEIRRLCRAGSGESSDAGALSNGYTGDSDPSCAQWKPLVLLIPLRLGLSEINEAYIETLKHCFMVPQSLGVIGGRPNSAHYFIGYVGDELIYLDPHTTQLSVEPSDCSFIEDESFHCQHPPCRMHVSEIDPSIAVGFFCSSQEDFEDWCQHIKKLSLSGGALPMFEVVDQ | the C-terminally truncated protease showed significantly reduced cleavage already at 100-30 µM substrate concentration | 1 µM of each protease fragment was sufficient to cleave 100 µM of substrate within 1 h | Deletion of the protease's C-terminus, however, rendered the reaction salt sensitive at NaCl concentrations ≥0.5 M |  | The weak activity of xlAtg4B^25-345 on xlGATE16 was further reduced at salt concentrations ≥0.5 M |  | The boost of xlLC3B substrate processing at higher temperatures, however, was much weaker for this protease fragment | efficient cleavage (i.e. >95% cleavage) of the xlLC3B substrate required twice as long when using xlAtg4B^25-345 instead of the full-length or just N-terminally truncated xlAtg4B enzymes | Even more drastic effects were observed when cleaving xlGATE16-MBP with xlAtg4B^25-345 (FIG. 6A, right lower panel). Here, processing was poor even at 300 µM substrate concentration | could only cleave ≈30-4 0% of a 6600-fold substrate excess even at 37 °C | 500 nM of xlAtg4B^25-345 were insufficient to cleave 100 µM of xlGATE16 substrate within 2 h at 0 °C | ≈10-fold and ≈30-fold more xlAtg4B^25-345 was required for xlGATE16 processing as compared to the other protease fragments at 0 °C and 25° C., respectively | ≈10-fold and ≈30-fold more xlAtg4B^25-345 was required for xlGATE16 processing as compared to the other protease fragments at 0 °C and 25° C., respectively |  | 
xlAtg4B^14-384 (protein) ADTPDFPETAEPVWVLGRKYSALTEKEQLLNDITSRLWFTYRRNFQAIGGTGPTSDTGWGCMLRCGQMIFAQALICRHVGRDWRWDKQKPKGEYLNILTAFLDKKDSYYSIHQIAQMGVGEGKYIGQWYGPNTVAQVLRKLAVFDQWSSIAVHIAMDNTVVVDEIRRLCRAGSGESSDAGALSNGYTGDSDPSCAQWKPLVLLIPLRLGLSEINEAYIETLKHCFMVPQSLGVIGGRPNSAHYFIGYVGDELIYLDPHTTQLSVEPSDCSFIEDESFHCQHPPCRMHVSEIDPSIAVGFFCSSQEDFEDWCQHIKKLSLSGGALPMFEVVDQLPLHLSNPDVLNLTPDSSDADRLDRFFDSEDEEFEILSL | full-length xlAtg4B and both N-terminally shortened fragments could cleave the xlLC3B substrate rather efficiently even at substrate concentrations as low as 3-10 µM | 1 µM of each protease fragment was sufficient to cleave 100 µM of substrate within 1 h | xlLC3B processing by full-length xlAtg4B or its N-terminally truncated fragments was remarkably insensitive towards NaCl concentrations up to 1.5 M | Within 1 h at 37° C., all three enzymes were able to cleave a >3000-fold excess of the xlLC3B substrate to near completion | also full-length or N-terminally truncated xlAtg4B fragments showed a reduced cleavage activity at ≥1 M NaCl | near-complete cleavage of a 6600-fold substrate excess was reached for the two N-terminally shortened protease fragments already at 25 °C |  |  |  |  |  |  |  | xlLC3B was nearly exclusively recognized by xlAtg4B^14-384 | 
full-length xlAtg4B (Xenopus laevis Atg4B, residues 1-384) (protein) MDAATLTYDTLRFADTPDFPETAEPVWVLGRKYSALTEKEQLLNDITSRLWFTYRRNFQAIGGTGPTSDTGWGCMLRCGQMIFAQALICRHVGRDWRWDKQKPKGEYLNILTAFLDKKDSYYSIHQIAQMGVGEGKYIGQWYGPNTVAQVLRKLAVFDQWSSIAVHIAMDNTVVVDEIRRLCRAGSGESSDAGALSNGYTGDSDPSCAQWKPLVLLIPLRLGLSEINEAYIETLKHCFMVPQSLGVIGGRPNSAHYFIGYVGDELIYLDPHTTQLSVEPSDCSFIEDESFHCQHPPCRMHVSEIDPSIAVGFFCSSQEDFEDWCQHIKKLSLSGGALPMFEVVDQLPLHLSNPDVLNLTPDSSDADRLDRFFDSEDEEFEILSL | full-length xlAtg4B and both N-terminally shortened fragments could cleave the xlLC3B substrate rather efficiently even at substrate concentrations as low as 3-10 µM | 1 µM of each protease fragment was sufficient to cleave 100 µM of substrate within 1 h | xlLC3B processing by full-length xlAtg4B or its N-terminally truncated fragments was remarkably insensitive towards NaCl concentrations up to 1.5 M | Within 1 h at 37° C., all three enzymes were able to cleave a >3000-fold excess of the xlLC3B substrate to near completion | also full-length or N-terminally truncated xlAtg4B fragments showed a reduced cleavage activity at ≥1 M NaCl |  |  |  |  |  |  |  |  |  | the full-length enzyme required 37 °C for a similarly efficient cleavage
